Source: the supplement of paper PMC12042874
± gives the uncertainty stated by the source.

Assay: amyloid nucleation score (Sup35N fusion, yeast selection) (log enrichment); library NNK2; higher = more nucleation; inactive = no reads after selection
In short: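 Output and input plasmid inserts were sequenced by Illumina after psi-negative yeast carrying Sup35N fused to peptides of 20 random codons had been induced 24 hours with 100 μM copper sulfate and grown 7 days at 30°C on medium lacking adenine and uracil. The nucleation score is the DiMSum log enrichment of output over input reads, centred on the mode score of non-aggregating sequences. Sequences with under 100 input reads were excluded.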

Substance	amyloid nucleation score
DMGNDLRDRVRGFSALMLWR	inactive
DMQGYFCSLTLMFMFRPRIM	inactive
DNEMRYGDRSSVFI	1.32 ± 0.24
DNLLSPTSRKFRVDTILL	-0.256 ± 0.4
DPRLSSLSCMGRWHHNYHAS	0.772 ± 0.5
DPVRWRVKFFFYDSEVCGPL	2.73 ± 0.17
DPVSYILDWASRGNS	0.523 ± 0.64
DPYYLKGYCVWEEYSWCPS	-0.749 ± 0.55
DQVLHCSLDQSVGGSDQL	inactive
DRGTGNRGSCDRSYLDSGKV	0.963 ± 0.29
DRIYNVGRSRTGRSLFYSPV	-1.19 ± 0.38
DRLVSLAYLMWFGKMGWDKG	0.05 ± 0.51
DRVCGLPNVHSCVCYFAGRN	5.47 ± 0.076
DSIGVVFEVKTGKARASGVV	0.171 ± 0.49
DSLKFSLRLVHLPLPIYGCC	1.5 ± 0.43
DSLMQVNWN	1.01 ± 0.36
DSLNCGSRCKSAGDSNRWSL	0.11 ± 0.65
DSNTSSDILGLSYLYGRTRL	0.168 ± 0.37
DSPFLQNLMWNIFVGRIATM	-0.272 ± 0.31
DSRTFGITYYNDVLITGLCR	-0.709 ± 0.39
DSSVQRRLS	0.121 ± 0.56
DSWNRYNPFCPWKSYVTDSH	-0.926 ± 0.76
DTGNMVSEKPGGILSDMGRI	inactive
DTGSPDGWAQWLPYSEFLGM	-0.283 ± 0.65
DTIGAATLTITVWNSFMVGP	4.15 ± 0.076

Substance	amyloid nucleation score
DTLFLTCPSLHH	0.811 ± 0.58
DTLWEGSLLNVYFVDVIRST	0.06 ± 0.55
DTNLFTGGSLSVFYFDDGDK	2.96 ± 0.15
DTNVCHIYFGFELLSRFFCN	0.252 ± 0.36
DTPITDCELPAYFQVITNWL	0.007 ± 0.76
DTTALHRVTASTLGHRFSLG	0.58 ± 0.56
DTVLAI	0.035 ± 0.74
DVCLHMGKYSNVLILGHNWS	-0.449 ± 0.36
DVFYRSVPMQVGWQVMWACD	0.703 ± 0.15
DVGCAMPSYTRGWYVYSNLM	0.58 ± 0.42
DVKIVYSKTDRWRMGRSPES	1.55 ± 0.2
DVKWA	1.1 ± 0.21
DVLVINKLHLRWAGFDARGI	5.05 ± 0.1
DVMYFGASLGTFVGVIADWE	inactive
DVSGLNIVERGYKRCTGGND	-0.054 ± 0.62
DVWIFMTECGDAV	0.743 ± 0.81
DVWWTYMYFKMSTVHAMSLF	-0.113 ± 1.1
DWRSLRLGVK	-0.065 ± 0.32
DYGNLYL	-0.291 ± 1.1
DYIDKPELLSVLGTRQMKCF	0.241 ± 0.35
DYLKRDVSTFSLS	-0.021 ± 0.29
DYNKLVAWALCLCFFRFRRN	0.762 ± 0.81
DYNSNMSFSRLCTRVTCHSM	inactive
DYSVEGHLRMLLNKKRVGVE	-1.01 ± 0.76
EALSLLSR	-0.22 ± 1

Substance	amyloid nucleation score
EAWADGSIMYSYTRPDGDKV	0.421 ± 0.24
ECRGCAWA	3.95 ± 0.046
ECVRCC	-1.11 ± 0.76
EDFVLWLMW	-0.641 ± 0.63
EEQKSYSENMPV	-0.21 ± 0.56
EERVCLSPSDSSSRMLGQKV	-0.078 ± 0.35
EFCIHVSVLINPRGSNYDKW	-0.487 ± 1.1
EFDQWFLLFSLRSSFGLYLF	0.078 ± 0.25
EFRTAFLVI	0.138 ± 1.1
EFRWYNFLWY	-0.618 ± 1.1
EGTCPSSGNILSWKSFCVVG	-0.519 ± 0.25
EGTTKFDWHYYQVSTGNFAS	1.05 ± 0.51
EGVKF	0.436 ± 0.8
EGVKLECVLYVYDHSARRLL	inactive
EHSWIKLCIEWMSKPIGARR	0.927 ± 0.32
EITSKMSSWGSLTASALTIS	-0.104 ± 0.48
EKVGS	-0.097 ± 1.1
ELAMNIMMAFYYVCSIISTE	inactive
ELDWKASTIGKMNHIRLERR	0.145 ± 0.23
ELFYDLSQTCQMCF	-0.759 ± 0.64
ELILFITYTCIFWADCGRLY	-2.12 ± 1.1
ELKFSINWHW	4.4 ± 0.083
ELLHFSSISTS	inactive
ELLYWCANHDAGIVRVEFWW	1.48 ± 0.1
ELQRKNTGLKVDLKAHIHRF	5.37 ± 0.063

Substance	amyloid nucleation score
ELVLF	-0.454 ± 0.42
EMCCTENCLEGSKVLAQFYC	-1.02 ± 0.61
EMLKHCYTSTQSSYSFIYWR	-0.27 ± 0.65
EMYVNFMHVDGDGVPQHDAW	0.929 ± 0.37
EPSCTATKFVSGTMF	2.17 ± 0.11
EPVGYSMLGHVIKTVLVLAR	inactive
EQMGCTGLVFNVCEGFEDVM	3.44 ± 0.059
EQRILRLSRSIESFSMNRNQ	-0.593 ± 0.64
ERGQGKHRNEGVHYNRWCGC	2.15 ± 0.17
ERGSGASMFVDGGRYRSRPM	-0.159 ± 1
ERRRFRVDRKVLAFFYVSGT	0.046 ± 0.37
ERRTCTRLPNVSRARIR	1.27 ± 0.21
ERTVKETFSTGNSYEGTGRR	-0.468 ± 0.53
ESAAER	-0.186 ± 0.76
ESHTGYNIPVIRSHPPYNRS	-0.869 ± 0.64
ESLEADN	inactive
ESSIRHRGMERRCRLHKRH	0.546 ± 0.39
ESYRPPVKTFGLGIRMGLFV	-0.975 ± 1.1
ETEGKGRWKD	inactive
ETGSIVVKMLPSRWGSLRLV	3.19 ± 0.11
ETKKLYDRAARERRCCRNHY	0.078 ± 0.3
EVFGGFTRRRCVVLPRHRAW	1.9 ± 0.27
EVGKNRTSHIL	-0.134 ± 0.55
EVHASYVRTSWDVCTWVGHV	2.29 ± 0.26
EVRFSILFGSVIKRTV	1.09 ± 0.21

Substance	amyloid nucleation score
EVRWASAPRNCCR	0.79 ± 0.26
EWSFLMNFSIMYRHFRVLAL	-1.35 ± 0.78
EWVAVGTDQR	1.25 ± 0.29
EWVNVASVYGDSKKRYGWNA	-0.239 ± 0.61
EYAYILELFYQCFVMPYTLV	0.392 ± 0.51
EYHLDHDFSPMGMAPRH	0.049 ± 0.63
EYHSSWVISAPVYLQSATAW	5.23 ± 0.085
EYRVYYSRLRSLSTEEPMAS	-0.299 ± 0.79
EYSFIHLEIKNTVLKRVLTP	1.66 ± 0.32
EYSLCRMG	-0.155 ± 0.28
FACIPIQCIGISGRGSRDRR	8.017 ± 0.044
FAESDGRHHFFSPLVSERIE	3.82 ± 0.056
FAFMITPCMLTSRMFSYGHA	-0.18 ± 0.36
FAFTPIC	-1.59 ± 1
FAIMHFY	-0.711 ± 1.1
FAYISRFKGG	4.22 ± 0.059
FAYKNRNM	-0.307 ± 0.41
FCEWGSEYWGNMDCDACDTA	-1.09 ± 0.76
FCIQK	-0.114 ± 0.55
FCKDLMFC	0.378 ± 0.36
FCLDLWCKGFLYYTQCVNGW	4.08 ± 0.063
FCMRNGVYLEYFVGLMLFCA	-0.566 ± 0.63
FCNDRTTVGD	-0.538 ± 0.39
FCRNIKDYLDYCHRGVGPKK	0.176 ± 0.76
FCSGVLQMLLISLDNLGRVS	-0.017 ± 1

Substance	amyloid nucleation score
FCSPCSFLINSY	6.514 ± 0.048
FCSVTMHKKMN	-0.195 ± 0.38
FCTKSTGNMCFTIMKLRG	0.097 ± 0.79
FDGTIYCPSWILWETPGVNK	inactive
FDKCLDKLMDKEKHALTFPQ	-0.453 ± 1.1
FDLSREV	-0.544 ± 0.29
FDTRLSNFFPF	-0.636 ± 0.76
FDTVGYSACCCWP	4.78 ± 0.11
FEEYEGLLDVSFKRPSFYCI	0.456 ± 0.6
FEGTHCVSSIANVMCVRWCL	6.43 ± 0.069
FEGVTYSRVV	0.001 ± 0.54
FEKISSAFFGNYGLFMNWLS	-0.441 ± 0.78
FEMIC	0.783 ± 0.57
FEYPLCKTFEIRKPVFRVWV	-0.089 ± 0.79
FFAGKCGIMTSLRDLSVAFG	-0.071 ± 0.65
FFAKCELVSWDFDKSLGSSM	-0.437 ± 0.34
FFCPRGRAFLSSRM	-0.788 ± 0.79
FFCTQRFSVCVLGVHKLESL	4.26 ± 0.048
FFDGSVNQYESRYHGCD	-0.37 ± 0.76
FFFMSDLYKSLSSAYDLGSI	inactive
FFGGYYYKLSQKLLRIAHYH	inactive
FFHKDPLLQNRIVLHMQVPA	inactive
FFIIMRYRLRDFTFVYSSPV	-0.627 ± 0.31
FFMCMQVWLRVFYVRGM	-1.5 ± 0.36
FFQEGYNRVPS	-0.336 ± 0.62

Substance	amyloid nucleation score
FFQVPSSNLVSLTDRLYSLG	-1.16 ± 0.5
FFSNL	0.119 ± 0.57
FFSTTYNHNSDFAWDQAELY	0.016 ± 1.1
FFTVFLQDIMVWRDQWIYPQ	inactive
FFYEFFSHICLGQERGWPRV	inactive
FGCIFYPMYLS	5.32 ± 0.088
FGDLGLIVRDSKSLLGSIKQ	0.053 ± 0.79
FGFKCSAVITICPGPSRLGS	5.12 ± 0.081
FGGRFIQSRVSMR	inactive
FGIERCRLYGNFYCVAVLGS	inactive
FGILGCMYVNPNMNMIYWLW	1.56 ± 0.24
FGLDLVFISFQARKCFVVMD	inactive
FGLGVCNWIYGCKMDAFNSG	6.223 ± 0.039
FGMLFGQDKTVHRSGLDLCG	0.119 ± 0.5
FGVITNSGCGRLFAEEKTRW	1.15 ± 0.16
FGWVVSSVSFKVMMAV	-0.084 ± 0.44
FHVEHGAWWCIGDRFVVPGF	0.541 ± 0.2
FHVTVRFRSYCIFDPRGCVI	1.81 ± 0.21
FIEVTSRNT	-0.994 ± 0.42
FIFGCTCNILFICASSRFLQ	2.92 ± 0.11
